According to the supplement of paper PMC9112550, “Optimization of the antimicrobial peptide Bac7 by deep mutational scanning” (BMC Biology, 2022):

system: Escherichia coli TOP10; experiment: shrunken log2 fold change of peptide-encoding DNA abundance (4.5 h post-induction vs induction); higher = less antimicrobial activity (less host growth inhibition); settings: time post-induction: 4.5 h; library: site-saturation at positions 5, 18, 19, 20
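Note: peptides expressed intracellularly from a pBAD plasmid library in pooled LB shake-flask culture, induced with 0.3% L-arabinose, DNA abundance read by NGS, three biological replicates, DESeq2 with apeglm shrinkage.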

Compared with RRIRWRPPRLPRPRPRPVGIPRP, RRIRVRPPRLPRPRPRPKEGPRP is higher in “shrunken log2 fold change” value: -0.198 for the first, 0.0282 for the second.

Compared with RRIRNRPPRLPRPRPRPVQGPRP, RRIRIRPPRLPRPRPRPNMEPRP is lower in “shrunken log2 fold change” value: 0.295 for the first, -0.509 for the second.

RRIRFRPPRLPRPRPRPNEQPRP and RRIRLRPPRLPRPRPRPNPPPRP are within 0.2 log units of each other in “shrunken log2 fold change” value: 0.027 for the first, 0.0837 for the second.

Going from RRIRGRPPRLPRPRPRPTFAPRP to RRIRMRPPRLPRPRPRPINSPRP, the “shrunken log2 fold change” value falls from 0.997 to -0.142.

RRIRTRPPRLPRPRPRPQCYPRP and RRIRGRPPRLPRPRPRPNFLPRP are within 0.2 log units of each other in “shrunken log2 fold change” value: -0.256 for the first, -0.0918 for the second.

Compared with RRIRGRPPRLPRPRPRPPKPPRP, RRIRKRPPRLPRPRPRPWITPRP is lower in “shrunken log2 fold change” value: 0.919 for the first, -0.105 for the second.

First: RRIRFRPPRLPRPRPRPKCRPRP
Second: RRIRFRPPRLPRPRPRPYPAPRP
The “shrunken log2 fold change” value of the first is higher: -0.0272 for the first, -0.512 for the second.

Going from RRIRNRPPRLPRPRPRPARPPRP to RRIRHRPPRLPRPRPRPFVSPRP, the “shrunken log2 fold change” value falls from 2.86 to -0.19.

RRIRQRPPRLPRPRPRPKMTPRP and RRIRERPPRLPRPRPRPNDVPRP are within 0.2 log units of each other in “shrunken log2 fold change” value: 0.00734 for the first, 0.0254 for the second.

RRIRTRPPRLPRPRPRPRYYPRP and RRIRNRPPRLPRPRPRPMPGPRP are within 0.2 log units of each other in “shrunken log2 fold change” value: -0.112 for the first, 0.0352 for the second.

Going from RRIRFRPPRLPRPRPRPKFMPRP to RRIRCRPPRLPRPRPRPGRPPRP, the “shrunken log2 fold change” value rises from -0.542 to 0.106.

Compared with RRIRGRPPRLPRPRPRPMGQPRP, RRIRARPPRLPRPRPRPDWNPRP is lower in “shrunken log2 fold change” value: 0.651 for the first, 0.0789 for the second.

RRIRSRPPRLPRPRPRPTMFPRP and RRIRMRPPRLPRPRPRPFEMPRP are within 0.2 log units of each other in “shrunken log2 fold change” value: -0.0103 for the first, 0.0316 for the second.

Going from RRIRSRPPRLPRPRPRPSFCPRP to RRIRNRPPRLPRPRPRPRKAPRP, the “shrunken log2 fold change” value rises from -0.251 to 0.473.

Compared with RRIRVRPPRLPRPRPRPDQTPRP, RRIRERPPRLPRPRPRPKSLPRP is lower in “shrunken log2 fold change” value: -0.002 for the first, -0.515 for the second.

RRIRMRPPRLPRPRPRPTLCPRP and RRIRERPPRLPRPRPRPASSPRP are within 0.2 log units of each other in “shrunken log2 fold change” value: 0.122 for the first, 0.0151 for the second.

Compared with RRIRMRPPRLPRPRPRPTQMPRP, RRIRHRPPRLPRPRPRPQMCPRP is lower in “shrunken log2 fold change” value: 0.195 for the first, -0.0203 for the second.

RRIRNRPPRLPRPRPRPFGFPRP and RRIRVRPPRLPRPRPRPFCAPRP are within 0.2 log units of each other in “shrunken log2 fold change” value: -0.132 for the first, 0.00539 for the second.

Going from RRIRDRPPRLPRPRPRPAIPPRP to RRIRGRPPRLPRPRPRPALVPRP, the “shrunken log2 fold change” value rises from -0.538 to 1.02.

First: RRIRERPPRLPRPRPRPQHFPRP
Second: RRIRFRPPRLPRPRPRPFYTPRP
The “shrunken log2 fold change” value of the first is higher: 0.131 for the first, -0.89 for the second.

First: RRIRGRPPRLPRPRPRPQNYPRP
Second: RRIRMRPPRLPRPRPRPMRAPRP
The “shrunken log2 fold change” value of the first is lower: -0.153 for the first, 2.56 for the second.

Going from RRIRWRPPRLPRPRPRPPPNPRP to RRIRVRPPRLPRPRPRPHRLPRP, the “shrunken log2 fold change” value falls from 0.928 to -0.0912.

RRIRKRPPRLPRPRPRPCTQPRP and RRIRHRPPRLPRPRPRPMDNPRP are within 0.2 log units of each other in “shrunken log2 fold change” value: -0.0701 for the first, -0.262 for the second.

RRIRNRPPRLPRPRPRPDIMPRP and RRIRNRPPRLPRPRPRPRFFPRP are within 0.2 log units of each other in “shrunken log2 fold change” value: -0.039 for the first, -0.0927 for the second.

RRIRWRPPRLPRPRPRPEYHPRP and RRIRQRPPRLPRPRPRPQTTPRP are within 0.2 log units of each other in “shrunken log2 fold change” value: 0.0167 for the first, -0.0245 for the second.

First: RRIRDRPPRLPRPRPRPARLPRP
Second: RRIRKRPPRLPRPRPRPFNAPRP
The “shrunken log2 fold change” value of the first is higher: 0.382 for the first, 0.0749 for the second.

RRIRVRPPRLPRPRPRPWCHPRP and RRIRCRPPRLPRPRPRPYLIPRP are within 0.2 log units of each other in “shrunken log2 fold change” value: -0.291 for the first, -0.233 for the second.

RRIRWRPPRLPRPRPRPEEAPRP and RRIRDRPPRLPRPRPRPAMNPRP are within 0.2 log units of each other in “shrunken log2 fold change” value: 0.113 for the first, 0.139 for the second.

First: RRIRQRPPRLPRPRPRPLAPPRP
Second: RRIRMRPPRLPRPRPRPLYLPRP
The “shrunken log2 fold change” value of the first is higher: 0.38 for the first, -0.327 for the second.

RRIRCRPPRLPRPRPRPITAPRP and RRIRERPPRLPRPRPRPVCQPRP are within 0.2 log units of each other in “shrunken log2 fold change” value: -3.59e-05 for the first, 0.121 for the second.

First: RRIRNRPPRLPRPRPRPIVTPRP
Second: RRIRFRPPRLPRPRPRPSKYPRP
The “shrunken log2 fold change” value of the first is higher: -0.179 for the first, -0.868 for the second.

Compared with RRIRMRPPRLPRPRPRPPPHPRP, RRIRHRPPRLPRPRPRPWVQPRP is lower in “shrunken log2 fold change” value: 1.62 for the first, 0.0187 for the second.

RRIRTRPPRLPRPRPRPFYFPRP and RRIRHRPPRLPRPRPRPTMKPRP are within 0.2 log units of each other in “shrunken log2 fold change” value: -0.57 for the first, -0.585 for the second.

RRIRDRPPRLPRPRPRPSGRPRP and RRIRGRPPRLPRPRPRPYVNPRP are within 0.2 log units of each other in “shrunken log2 fold change” value: 0.124 for the first, 0.0862 for the second.

RRIRARPPRLPRPRPRPFHNPRP and RRIRPRPPRLPRPRPRPPDIPRP are within 0.2 log units of each other in “shrunken log2 fold change” value: -0.625 for the first, -0.602 for the second.

RRIRTRPPRLPRPRPRPNWRPRP and RRIRDRPPRLPRPRPRPEVSPRP are within 0.2 log units of each other in “shrunken log2 fold change” value: 0.176 for the first, 0.3 for the second.

Compared with RRIRRRPPRLPRPRPRPVSKPRP, RRIRVRPPRLPRPRPRPPFNPRP is lower in “shrunken log2 fold change” value: 0.24 for the first, -0.303 for the second.

RRIRSRPPRLPRPRPRPIDKPRP and RRIRNRPPRLPRPRPRPHTPPRP are within 0.2 log units of each other in “shrunken log2 fold change” value: -0.156 for the first, -0.317 for the second.

Going from RRIRPRPPRLPRPRPRPPLFPRP to RRIRTRPPRLPRPRPRPGVQPRP, the “shrunken log2 fold change” value falls from 0.36 to -0.133.

Compared with RRIRWRPPRLPRPRPRPWYAPRP, RRIRWRPPRLPRPRPRPDVLPRP is higher in “shrunken log2 fold change” value: -0.746 for the first, -0.0113 for the second.

RRIRMRPPRLPRPRPRPCKLPRP and RRIRCRPPRLPRPRPRPISVPRP are within 0.2 log units of each other in “shrunken log2 fold change” value: -0.00365 for the first, 0.0666 for the second.

RRIRERPPRLPRPRPRPYLDPRP and RRIRYRPPRLPRPRPRPSECPRP are within 0.2 log units of each other in “shrunken log2 fold change” value: -0.149 for the first, -0.347 for the second.

RRIRTRPPRLPRPRPRPVNTPRP and RRIRCRPPRLPRPRPRPKDNPRP are within 0.2 log units of each other in “shrunken log2 fold change” value: -0.103 for the first, -0.273 for the second.

RRIRHRPPRLPRPRPRPMMLPRP and RRIRNRPPRLPRPRPRPWYVPRP are within 0.2 log units of each other in “shrunken log2 fold change” value: -0.286 for the first, -0.097 for the second.

RRIRSRPPRLPRPRPRPGPMPRP and RRIRARPPRLPRPRPRPEKDPRP are within 0.2 log units of each other in “shrunken log2 fold change” value: 0.34 for the first, 0.366 for the second.

Going from RRIRWRPPRLPRPRPRPANAPRP to RRIRSRPPRLPRPRPRPPKMPRP, the “shrunken log2 fold change” value falls from 0.711 to 0.00423.

Going from RRIRPRPPRLPRPRPRPQDLPRP to RRIRMRPPRLPRPRPRPQHCPRP, the “shrunken log2 fold change” value falls from -0.13 to -0.458.

Going from RRIRLRPPRLPRPRPRPARCPRP to RRIRFRPPRLPRPRPRPFGCPRP, the “shrunken log2 fold change” value falls from 0.651 to -0.0616.

First: RRIRSRPPRLPRPRPRPLCEPRP
Second: RRIRERPPRLPRPRPRPIMEPRP
The “shrunken log2 fold change” value of the first is higher: 0.0616 for the first, -0.465 for the second.

Going from RRIRTRPPRLPRPRPRPSNGPRP to RRIRMRPPRLPRPRPRPDLVPRP, the “shrunken log2 fold change” value rises from -0.126 to 1.01.

RRIRCRPPRLPRPRPRPKTEPRP and RRIRMRPPRLPRPRPRPNKTPRP are within 0.2 log units of each other in “shrunken log2 fold change” value: -0.0486 for the first, -0.0156 for the second.

Compared with RRIRGRPPRLPRPRPRPDFTPRP, RRIRRRPPRLPRPRPRPGLCPRP is higher in “shrunken log2 fold change” value: 0.22 for the first, 0.457 for the second.

Compared with RRIRVRPPRLPRPRPRPICPPRP, RRIRMRPPRLPRPRPRPQLQPRP is higher in “shrunken log2 fold change” value: -0.0804 for the first, 0.165 for the second.

First: RRIRFRPPRLPRPRPRPRGMPRP
Second: RRIRVRPPRLPRPRPRPCYQPRP
The “shrunken log2 fold change” value of the first is higher: 0.2 for the first, -0.142 for the second.

RRIRHRPPRLPRPRPRPIENPRP and RRIRTRPPRLPRPRPRPPQVPRP are within 0.2 log units of each other in “shrunken log2 fold change” value: -0.143 for the first, -0.0388 for the second.

RRIRTRPPRLPRPRPRPSDSPRP and RRIRLRPPRLPRPRPRPHKKPRP are within 0.2 log units of each other in “shrunken log2 fold change” value: -0.214 for the first, -0.163 for the second.

Compared with RRIRERPPRLPRPRPRPWIRPRP, RRIRHRPPRLPRPRPRPHTKPRP is higher in “shrunken log2 fold change” value: -0.667 for the first, -0.0831 for the second.

Going from RRIRVRPPRLPRPRPRPALQPRP to RRIRHRPPRLPRPRPRPETAPRP, the “shrunken log2 fold change” value rises from 0.0743 to 0.346.

RRIRWRPPRLPRPRPRPIPEPRP and RRIRYRPPRLPRPRPRPNSRPRP are within 0.2 log units of each other in “shrunken log2 fold change” value: -0.0356 for the first, -0.156 for the second.

First: RRIRFRPPRLPRPRPRPNAYPRP
Second: RRIRTRPPRLPRPRPRPMYGPRP
The “shrunken log2 fold change” value of the first is lower: -0.347 for the first, -0.000687 for the second.

RRIRRRPPRLPRPRPRPEFAPRP and RRIRQRPPRLPRPRPRPVSTPRP are within 0.2 log units of each other in “shrunken log2 fold change” value: 0.129 for the first, -0.0279 for the second.

RRIRARPPRLPRPRPRPFKWPRP and RRIRKRPPRLPRPRPRPHCCPRP are within 0.2 log units of each other in “shrunken log2 fold change” value: -0.176 for the first, -0.0219 for the second.

For RRIRQRPPRLPRPRPRPCWPPRP, the “shrunken log2 fold change” value was 0.193.
